Assay results as given in PMC3474761.

System: Hfq (His-tagged) (Burkholderia cenocepacia J2315?)
Assay: EMSA
Details: RNA binding buffer (composition in cited ref. 21), 25 ul, 30 min at 25 C, salt and pH not stated

Substance | Kd (excess unlabelled yeast tRNA) | Kd (apparent Kd, 2.5 nM RNA, 0-10 nM Hfq6, excess yeast tRNA, excess unlabelled yeast …)
hfq2 5'-UTR (216 nt) | 9.5 nM | –
h2cR sRNA (136 nt) | – | 1.5 nM
